# Data as given in patent publication US20240368301A1.
# How the values were obtained:
# [1] = molecular target: SIRPα V2-his (made by transient transfection of HEK293F cells according to SEQ ID NO:38) (Homo sapiens (Human)) (UniProt P78324); test: BLI (Octet RED 96), His-tagged antigen on Ni-NTA sensor, antibody in solution
# [2] = molecular target: SIRPα V2-his (made by transient transfection of HEK293F cells according to SEQ ID NO:38) (Homo sapiens (Human)) (UniProt P78324); test: competition ELISA; coated SIRPα-V2-his, biotin-CD47 as competitor
# Chain of SIRPα V2-his (made by transient transfection of HEK293F cells according to SEQ ID NO:38) (Homo sapiens (Human)) (P78324 other isoform, or with tags, fused parts or gaps limits assumed): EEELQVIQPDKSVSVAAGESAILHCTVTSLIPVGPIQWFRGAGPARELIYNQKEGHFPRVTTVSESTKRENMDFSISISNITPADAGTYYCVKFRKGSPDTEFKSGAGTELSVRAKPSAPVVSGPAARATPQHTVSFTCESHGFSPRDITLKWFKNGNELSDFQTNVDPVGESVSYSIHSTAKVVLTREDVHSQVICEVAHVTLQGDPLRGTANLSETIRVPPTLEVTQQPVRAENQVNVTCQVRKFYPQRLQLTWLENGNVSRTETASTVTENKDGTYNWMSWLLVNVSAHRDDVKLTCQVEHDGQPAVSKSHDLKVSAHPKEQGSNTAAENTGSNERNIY
binder,measurement,setting,value
"AD4-12 (antibody, V domains shown) VH: EVQLEESGPGLVAPSQSLSITCTVSGFSLTGYGVNWVRQPPGKGLEWLGIIWGDGSTDYNSALKSRLSISKDNSKSQVFLKMNSLQSDDTARYYCARAGKMDYWGQGTSVTVSS VL: DIVLTQSPASLAVSLGQGATISCRASESVDSYGNSFMHWYQQKPGQPPKPLIYLASNLESGVPARFSGSGSRTDFTLTIDPVEADDAATYYCQQNNEYPWTFGGGTKLEIK",Kd,[1],0.898 nM
same,koff,[1],0.000327 s⁻¹
same,kon,[1],364000 M⁻¹ s⁻¹
same,IC50,[2],9.32 nM
